Source: US20230220085A1 (BRIGHAM AND WOMEN S HOSPITAL, published 2023)

Assays:
[1] = target: T1, Recombinant human BMPR2-Fc (BMPR2 extracellular domain-IgG Fc fusion protein) (human, UniProt Q13873 27-150); assay: BLI, immobilized BMPR2, FIG. 4C
T1 construct: extracellular domain; also called immobilized BMPR2; BMPRII; not shown: IgG Fc of the fusion protein (captured on anti-human IgG Fc sensors)
T1 sequence (looked up): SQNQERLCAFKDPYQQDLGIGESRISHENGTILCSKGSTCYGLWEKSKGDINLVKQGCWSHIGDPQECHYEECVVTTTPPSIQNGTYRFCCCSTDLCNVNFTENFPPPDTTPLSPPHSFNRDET
Method: (§1) To characterize the biochemical interactions of the scFv clones with recombinant human ALK1 and BMPR2 receptors, we used Bio-Layer Interferometry (Octet Red 384, ForteBio). Receptors, expressed as IgG Fc fusion proteins (i.e., ALK1-Fc, and BMPR2-Fc) were immobilized onto Anti-Human IgG Fc Capture Sensors (ForteBio, #18-0015) at a concentration of 10 µg/mL in an equilibration buffer of HEPES 20 mM (GIBCO #15630), 0.05% Tween-20 (Promega #H5151), and Imidazole 25 mM (SIGMA #10250) in PBS. All the clones were tested at different ranges of concentration in equilibration buffer: 50 nM, 100 nM, 200 nM, and 400 nM. The ForteBio program methodology was set as follows: Baseline equilibration of 60 s, loading time of 60 s, washing time of 120 s, association time of 300 s, and dissociation time of 600 s. The binding kinetics were analyzed using the ForteBio data analysis software.

[2] = target: T2, Recombinant human ALK1-Fc (ALK1 extracellular domain-IgG Fc fusion protein) (human, UniProt P37023 22-118); assay: BLI (Octet Red), FIG. 2A
T2 construct: extracellular domain; Bought reagent (R&D #370AL is named for the luciferase assay); also called immobilized ALK1; ACVRL1; not shown: IgG Fc of the bought fusion protein (captured on anti-human IgG Fc sensors)
T2 sequence (P37023 22-118): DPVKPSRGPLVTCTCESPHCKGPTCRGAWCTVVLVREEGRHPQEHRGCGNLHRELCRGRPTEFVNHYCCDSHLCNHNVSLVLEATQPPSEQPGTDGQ
Method: as §1
(§2) Bio-Layer Interferometry was used to determine the affinities of scFv clones for human BMPR2 and ALK1 receptors. The binding kinetics of scFv clones ALK1.3 (FIG. 1A) and ALK1.8 (FIG. 1B) versus immobilized ALK1; and BMPR2.12 (FIG. 1C) and BMPR2.23 (FIG. 1D) against BMPR2 are shown.

[3] = target: T2, Recombinant human ALK1-Fc (ALK1 …); assay: BLI, FIG. 4B
Method: as §1

[4] = target: T1, Recombinant human BMPR2-Fc (BMPR2 …); assay: BLI (Octet Red), FIG. 2B
Method: as §1, §2

[5] = target: T2, Recombinant human ALK1-Fc (ALK1 …); assay: BLI (Octet Red), immobilized ALK1, FIG. 2A
Method: as §1, §2

[6] = target: T1, Recombinant human BMPR2-Fc (BMPR2 …); assay: BLI, FIG. 4C
Method: as §1

[7] = target: T2, Recombinant human ALK1-Fc (ALK1 …); assay: BLI, immobilized ALK1, FIG. 4B
Method: as §1

[8] = target: T2, Recombinant human ALK1-Fc (ALK1 …); assay: BLI, immobilized ALK1, FIG. 4D
Method: as §1

B1: scFv clone ALK1.3 (anti-ACVRL1/ALK1) (scFv)
scFv: QSALTQPASVSGSPGQSITISCAGTSSDVGTYNYVSWYQQHPGKAPKLMIYDVSKRPSGVPDRFSGSKSGNTASLTISGLQAEDEADYYCYSYTTSSTWVFGGGTKVTVLGEGKSSGSGSESKASQVQLQESGPGLLKPSQTLSLTCTVSGDSIGSGDYYWSWIRQPPGKGLEWIGYSYHTGSTDYNPSLKSRVSISVDRSKNQFSLKLRSVTAADTAVYYCARDYYGYLGYWGQGTLVTVSS
notes: Human scFv from phage display, VL-linker-VH, expressed in E. coli
[1]
  binding result: no binding
[2]
  binding result: binds

B2: Biotinylated scFv ALK1.3 (scFv)
scFv: QSALTQPASVSGSPGQSITISCAGTSSDVGTYNYVSWYQQHPGKAPKLMIYDVSKRPSGVPDRFSGSKSGNTASLTISGLQAEDEADYYCYSYTTSSTWVFGGGTKVTVLGEGKSSGSGSESKASQVQLQESGPGLLKPSQTLSLTCTVSGDSIGSGDYYWSWIRQPPGKGLEWIGYSYHTGSTDYNPSLKSRVSISVDRSKNQFSLKLRSVTAADTAVYYCARDYYGYLGYWGQGTLVTVSS
modifications: biotinylated (DSB-X Biotin Protein Labeling Kit; average 1.5-2 sites per molecule; sites not stated)
notes: ALK1.3 scFv after low substitution ratio biotinylation; also called ALK1.3-Bio
[1]
  binding result: no binding
[3]
  binding result: binds

B3: scFv clone BMPR2.12 (anti-BMPR2/BMPRII) (scFv)
scFv: QSALTQPASVSGSPGQSITISCTGTSSDVGGYKSVSWYQQHPGKAPKLMIYDVSNRPSGVSDRFSGSKSGNTASLTISGLQAEDEADYYCSSYTSSSSLWVFGGGTKLTVLGEGKSSGSGSESKASQVQLVQSGAEVKKPGSSVKVSCKASGGTFSSYAISWVRQAPGQGLEWMGRIIPILGIANYAQKFQGRVTMTEDTSTDTAYMELSSLRSEDTAVYYCATDLWGVGADWGQGTLVTVSS
notes: as for B1
[4]
  binding result: binds
[5]
  binding result: no binding

B4: Biotinylated scFv BMPR2.12 (scFv)
scFv: QSALTQPASVSGSPGQSITISCTGTSSDVGGYKSVSWYQQHPGKAPKLMIYDVSNRPSGVSDRFSGSKSGNTASLTISGLQAEDEADYYCSSYTSSSSLWVFGGGTKLTVLGEGKSSGSGSESKASQVQLVQSGAEVKKPGSSVKVSCKASGGTFSSYAISWVRQAPGQGLEWMGRIIPILGIANYAQKFQGRVTMTEDTSTDTAYMELSSLRSEDTAVYYCATDLWGVGADWGQGTLVTVSS
modifications: biotinylated (DSB-X Biotin Protein Labeling Kit; average 1.5-2 sites per molecule; sites not stated)
notes: BMPR2.12 scFv after low substitution ratio biotinylation; also called BMPR2.12-Bio
[6]
  binding result: binds
[7]
  binding result: no binding

B5: scFv clone BMPR2.23 (anti-BMPR2/BMPRII) (scFv)
scFv: QAVLTQPSSLSASPGASASLTCTLHSGINVATYRIYWYQQKPGSPPQYLLTYKSDLDKHQGSGVPSRFSGSKDASANAGILLISGLQSDDEGDYYCLIWHDYVWYFGGGTKVTVLGEGKSSGSGSESKASEVQLLESGGGLVQPGRSLRLSCAASGFTFDDYAMHWVRQAPGKGLEWVSGISWNSGSIGYADSVKGRFTISRDNAKNSLYLQMNSLRAEDTALYYCAKGGWGSSTHYYYGMDVWGQGTTVTVSS
[8]
  binding result: no binding

B6: Biotinylated scFv BMPR2.23 (scFv)
scFv: QAVLTQPSSLSASPGASASLTCTLHSGINVATYRIYWYQQKPGSPPQYLLTYKSDLDKHQGSGVPSRFSGSKDASANAGILLISGLQSDDEGDYYCLIWHDYVWYFGGGTKVTVLGEGKSSGSGSESKASEVQLLESGGGLVQPGRSLRLSCAASGFTFDDYAMHWVRQAPGKGLEWVSGISWNSGSIGYADSVKGRFTISRDNAKNSLYLQMNSLRAEDTALYYCAKGGWGSSTHYYYGMDVWGQGTTVTVSS
modifications: biotinylated (DSB-X Biotin Protein Labeling Kit; average 1.5-2 sites per molecule; sites not stated)
notes: BMPR2.23 scFv after biotinylation
[8]
  binding result: no binding
